Laboratory results published in patent US20230279138A1 (CHIA TAI TIANQING PHARMACEUTICAL GROUP, published 2023).

T1: CD20 on Raji cells (CD20+/CD3- cells) (human, UniProt P11836 1-297)
T1 construct: whole, on cells; Raji, Ramos and NAMALWA in the killing assays; also called Ramos; NAMALWA
T1 sequence (looked up): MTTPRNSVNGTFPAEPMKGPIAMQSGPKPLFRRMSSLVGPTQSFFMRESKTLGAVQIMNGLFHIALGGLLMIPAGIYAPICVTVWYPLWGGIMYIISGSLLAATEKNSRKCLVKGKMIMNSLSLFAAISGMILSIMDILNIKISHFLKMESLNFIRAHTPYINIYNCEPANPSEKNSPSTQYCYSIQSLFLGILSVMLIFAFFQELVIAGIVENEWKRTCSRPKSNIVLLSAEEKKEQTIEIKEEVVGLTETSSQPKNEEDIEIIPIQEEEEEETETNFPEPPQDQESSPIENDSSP


How the values were obtained:
[1] = biological target: T2, CD3 on Jurkat cells (CD3+/CD20- cells) (human, UniProt P07766 23-207; P04234 22-171; P09693 23-182); test: flow cytometry on Jurkat 2B8 cells (CD3+/CD20-)
T2 construct: whole, on cells; also called Jurkat 2B8
T2 sequence (P07766 23-207, chain 1 of 3): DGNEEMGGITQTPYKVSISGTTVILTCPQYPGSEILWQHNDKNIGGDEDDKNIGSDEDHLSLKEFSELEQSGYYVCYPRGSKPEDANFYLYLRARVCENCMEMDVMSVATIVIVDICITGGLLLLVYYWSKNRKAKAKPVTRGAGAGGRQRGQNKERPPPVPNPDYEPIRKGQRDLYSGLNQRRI
T2 sequence (P04234 22-171, chain 2 of 3): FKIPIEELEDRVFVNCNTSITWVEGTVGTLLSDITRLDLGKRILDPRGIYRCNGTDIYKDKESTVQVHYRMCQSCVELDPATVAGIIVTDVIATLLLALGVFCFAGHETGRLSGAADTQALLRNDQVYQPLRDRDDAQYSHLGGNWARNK
T2 sequence (P09693 23-182, chain 3 of 3): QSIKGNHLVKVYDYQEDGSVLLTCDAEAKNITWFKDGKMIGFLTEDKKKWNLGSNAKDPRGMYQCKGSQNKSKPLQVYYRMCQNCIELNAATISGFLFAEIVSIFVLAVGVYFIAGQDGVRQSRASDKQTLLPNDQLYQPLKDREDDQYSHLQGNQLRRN
Procedure: (§1) After incubation, the cells were washed twice with cold 1% BSA/1×PBS. […] After being washed twice, the geometric mean fluorescence (MFI) of the stained cells was measured using a FACS Canto II […] (BD Biosciences). Wells containing no antibody or containing only fluorescent secondary antibody were used to establish background fluorescence. The EC50 values for cell binding were determined using GraphPad Prism 5 software (GraphPad Software, La Jolla, Calif.); each value was calculated by four-parameter non-linear regression analysis.

[2] = biological target: T1, CD20 on Raji cells (CD20+/CD3- cells); test: flow cytometry on Raji cells (CD20+/CD3-)
Procedure: as §1

Row | EC50 [1] | TOP MFI [1] | EC50 [2] | TOP MFI [2] | Binder
1 | 129 nM | 3880 MFI | 13.2 nM | 68500 MFI | W3278-T2U3.E17R-1.uIgG4.SP (bispecific antibody, Human IgG4 with S228P, knobs-into-holes; WuXiBody format, in which one arm carries TCR constant domains; also called W3278 BsAb; WBP3278 BsAb) heavy 1: QVQLVQSGAEVKKPGSSVKVSCKASGYSFTTYYIHWVRQAPGQGLEWMGWIFPGNDNIKYSEKFKGRVTITADKSTSTAYMELSSLRSEDTAVYYCAIDSVSIYYFDYWGQGTLVTVSSASTKGPSVFPLAPCSRSTSESTAALGCLVKDYFPEPVTVSWNSGALTSGVHTFPAVLQSSGLYSLSSVVTVPSSSLGTKTYTCNVDHKPSNTKVDKRVESKYGPPCPPCPAPEFLGGPSVFLFPPKPKDTLMISRTPEVTCVVVDVSQEDPEVQFNWYVDGVEVHNAKTKPREEQFNSTYRVVSVLTVLHQDWLNGKEYKCKVSNKGLPSSIEKTISKAKGQPREPQVYTLPPCQEEMTKNQVSLWCLVKGFYPSDIAVEWESNGQPENNYKTTPPVLDSDGSFFLYSRLTVDKSRWQEGNVFSCSVMHEALHNHYTQKSLSLSLG heavy 2: EVQLVESGGGLVQPGRSLRLSCAASGFTFNDYAMHWVRQAPGKGLEWVSTISWNSGSIGYADSVKGRFTISRDNAKKSLYLQMNSLRAEDTALYYCAKDIQYGNYYYGMDVWGQGTTVTVLEDLKNVFPPEVAVFEPSEAEISHTQKATLVCLATGFYPDHVELSWWVNGKEVHSGVCTDPQPLKEQPALQDSRYALSSRLRVSATFWQNPRNHFRCQVQFYGLSENDEWTQDRAKPVTQIVSAEAWGRYGPPCPPCPAPEFLGGPSVFLFPPKPKDTLMISRTPEVTCVVVDVSQEDPEVQFNWYVDGVEVHNAKTKPREEQFNSTYRVVSVLTVLHQDWLNGKEYKCKVSNKGLPSSIEKTISKAKGQPREPQVCTLPPSQEEMTKNQVSLSCAVKGFYPSDIAVEWESNGQPENNYKTTPPVLDSDGSFFLVSRLTVDKSRWQEGNVFSCSVMHEALHNHYTQKSLSLSLG light 1: not shown light 2: EIVLTQSPATLSLSPGERATLSCRASQSVSSYLAWYQQKPGQAPRLLIYDASNRATGIPARFSGSGSGTDFTLTISSLEPEDFAVYYCQQRSNWPITFGQGTRLEIKPDIQNPDPAVYQLRDSKSSDKSVCLFTDFDSQTQVSQSKDSDVYITDKCVLDMRSMDFKSNSAVAWSQKSDFACANAFQNSIIPEDTFFPSPESS
2 | – | – | 11.4 nM | 53500 MFI | Anti-CD20. IgG4 (U2) (antibody, V domains shown, Tested as IgG4; also called parental anti-CD20 antibody U2) VH: QVQLQQPGAELVKPGASVKMSCKASGYTFTSYNMHWVKQTPGRGLEWIGAIYPGNGDTSYNQKFKGKATLTADKSSSTAYMQLSSLTSEDSAVYYCARSTYYGGDWYFNVWGAGTTVTVSA VL: QIVLSQSPAILSASPGEKVTMTCRASSSVSYIHWFQQKPGSSPKPWIYATSNLASGVPVRFSGSGSGTSYSLTISRVEAEDAATYYCQQWTSNPPTFGGGTKLEIK
3 | 33 nM | 3210 MFI | – | – | Anti-CD3 Fab (T2) (Fab, V domains shown, Parental antibody tested as a Fab; The variable domains are tied to it through the clone naming: T2 is the anti-CD3 portion of W3278-T2U3 and W3278-U3T2; also called parental anti-CD3 antibody T2) VH: QVQLVQSGAEVKKPGSSVKVSCKASGYSFTTYYIHWVRQAPGQGLEWMGWIFPGNDNIKYSEKFKGRVTITADKSTSTAYMELSSLRSEDTAVYYCAIDSVSIYYFDYWGQGTLVTVSS VL: DIVMTQSPDSLAVSLGERATINCKSSQSLLNSRTRKNYLAWYQQKPGQPPKLLIYWASTRKSGVPDRFSGSGSGTDFTLTISSLQAEDVAVYYCTQSFILRTFGGGTKVEIK
4 | 43.7 nM | 3800 MFI | – | – | Anti-CD3 Fab (T3) (Fab, V domains shown, Parental antibody tested as a Fab; The variable domains are tied to it through the clone naming: T3 is the anti-CD3 portion of W3278-T3U2 and W3278-U2T3; also called parental anti-CD3 antibody T3) VH: QVQLVQSGAEVKKPGSSVKVSCKASGFAFTDYYIHWVRQAPGQGLEWMGWISPGNVNTKYNENFKGRVTITADKSTSTAYMELSSLRSEDTAVYYCARDGYSLYYFDYWGQGTLVTVSS VL: DIVMTQSPDSLAVSLGERATINCKSSQSLLNSRTRKNYLAWYQQKPGQPPKLLIYWASTRQSGVPDRFSGSGSGTDFTLTISSLQAEDVAVYYCTQSHTLRTFGGGTKVEIK
